Reference: the supplement of paper PMC11246515
± gives the standard deviation of the averaged measurements.

Assay: total protein half-life in vivo (active degradation + dilution); higher = more stable protein
[1] = wild type E. coli NCM3722, growth: C-lim chemostat, doubling time 12 h
[2] = E. coli NCM3722 delta-clpP delta-lon delta-hslV, growth: N-lim chemostat, doubling time 6 h
[3] = E. coli NCM3722 delta-clpP, growth: N-lim chemostat, doubling time 6 h
[4] = E. coli NCM3722 delta-hslV, growth: N-lim chemostat, doubling time 6 h
[5] = E. coli NCM3722 delta-lon, growth: N-lim chemostat, doubling time 6 h
[6] = E. coli NCM3722 delta-smpB, growth: N-lim chemostat, doubling time 6 h
[7] = wild type E. coli NCM3722, growth: C-lim chemostat, doubling time 3 h
[8] = wild type E. coli NCM3722, growth: C-lim chemostat, doubling time 6 h
[9] = wild type E. coli NCM3722, growth: N-lim chemostat, doubling time 6 h
[10] = wild type E. coli NCM3722, growth: N-lim chemostat, doubling time 12 h
[11] = wild type E. coli NCM3722, growth: P-lim chemostat, doubling time 6 h
[12] = wild type E. coli NCM3722, growth: P-lim chemostat, doubling time 12 h

Row | Sequence | total protein half-life in vivo [1] [h] | total protein half-life in vivo [2] [h] | total protein half-life in vivo [3] [h] | total protein half-life in vivo [4] [h] | total protein half-life in vivo [5] [h] | total protein half-life in vivo [6] [h] | total protein half-life in vivo [7] [h] | total protein half-life in vivo [8] [h] | total protein half-life in vivo [9] [h] | total protein half-life in vivo [10] [h] | total protein half-life in vivo [11] [h] | total protein half-life in vivo [12] [h]
1 | MATDTLTHATAHAHEHGHHDAGGTKIFGFWIYLMSDCILFSILFATYAVLVNGTAGGPTGKDIFELPFVLVETFLLLFSSITYGMAAIAMYKNNKSQVISWLALTWLFGAGFIGMEIYEFHHLIVNGMGPDRSGFLSAFFALVGTHGLHVTSGLIWMAVLMVQIARRGLTSTNRTRIMCLSLFWHFLDVVWICVFTVVYLMGAM [P0ABJ3] | 13.9 |  |  |  |  |  |  |  |  |  |  | 
2 | MGQEKLYIEKELSWLSFNERVLQEAADKSNPLIERMRFLGIYSNNLDEFYKVRFAELKRRIIISEEQGSNSHSRHLLGKIQSRVLKADQEFDGLYNELLLEMARNQIFLINERQLSVNQQNWLRHYFKQYLRQHITPILINPDTDLVQFLKDDYTYLAVEIIRGDTIRYALLEIPSDKVPRFVNLPPEAPRRRKPMILLDNILRYCLDDIFKGFFDYDALNAYSMKMTRDAEYDLVHEMEASLMELMSSSLKQRLTAEPVRFVYQRDMPNALVEVLREKLTISRYDSIVPGGRYHNFKDFINFPNVGKANLVNKPLPRLRHIWFDKAQFRNGFDAIRERDVLLYYPYHTFEHVLELLRQASFDPSVLAIKINIYRVAKDSRIIDSMIHAAHNGKKVTVVVELQARFDEEANIHWAKRLTEAGVHVIFSAPGLKIHAKLFLISRKENGEVVRYAHIGTGNFNEKTARLYTDYSLLTADARITNEVRRVFNFIENPYRPVTFDYLMVSPQNSRRLLYEMVDREIANAQQGLPSGITLKLNNLVDKGLVDRLYAASSSGVPVNLLVRGMCSLIPNLEGISDNIRAISIVDRYLEHDRVYIFENGGDKKVYLSSADWMTRNIDYRIEVATPLLDPRLKQRVLDIIDILFSDTVKARYIDKELSNRYVPRGNRRKVRAQLAIYDYIKSLEQPE [P0A7B1] |  | 6.92 ± 0.14 | 6.36 ± 0.29 | 6.79 ± 0.42 | 6.1 ± 0.063 | 6.038 ± 0.039 | 3.29 ± 0.35 | 6.27 ± 0.57 | 5.94 ± 0.53 | 13 ± 1.2 | 6.65 ± 0.23 | 13 ± 1.4
3 | MSDLLCSAKLGAMTLALLLSATSLSALASVTPDRTRLIFNESDKSISVTLRNNDPKLPYLAQSWIEDEKGNKITSPLTVLPPVQRIDSMMNGQVKVQGMPDINKLPADRESMFYFNVREIPPKSNKPNTLQIALQTRIKLFWRPKALEKVSMKSPWQHKVTLTRSGQAFTVNNPTPYYVIISNASAQKNGNPAAGFSPLVIEPKTTVPLNVKMDSVPVLTYVNDFGARMPLFFQCNGNSCQVDEEQSRKG |  |  |  |  |  |  |  |  |  |  | 4.16 | 
4 | MTQPMPGKPAEDAENELDIRGLFRTLWAGKLWIIGMGLAFALIALAYTFFARQEWSSTAITDRPTVNMLGGYYSQQQFLRNLDVRSNMASADQPSVMDEAYKEFVMQLASWDTRREFWLQTDYYKQRMVGNSKADAALLDEMINNIQFIPGDFTRAVNDSVKLIAETAPDANNLLRQYVAFASQRAASHLNDELKGAWAARTIQMKAQVKRQEEVAKAIYDRRMNSIEQALKIAEQHNISRSATDVPAEELPDSEMFLLGRPMLQARLENLQAVGPAFDLDYDQNRAMLNTLNVGPTLDPRFQTYRYLRTPEEPVKRDSPRRAFLMIMWGIVGGLIGAGVALTRRCSK [P0AG00] |  | 6.85 ± 0.38 | 6.17 ± 0.56 | 6.71 ± 1.2 | 6.55 ± 0.092 | 6.22 ± 0.16 | 3.48 ± 0.46 | 6.38 ± 0.37 | 6.6 ± 1.2 | 12.9 ± 1.9 | 6.31 ± 0.24 | 13.3 ± 0.56
5 | MKALARFGKAFGGYKMIDVPQPMCGPEDVVIEIKAAAICGADMKHYNVDSGSDEFNSIRGHEFAGCIAQVGEKVKDWKVGQRVVSDNSGHVCGVCPACEQGDFLCCTEKVNLGLDNNTWGGGFSKYCLVPGEILKIHRHALWEIPDGVDYEDAAVLDPICNAYKSIAQQSKFLPGQDVVVIGTGPLGLFSVQMARIMGAVNIVVVGLQEDVAVRFPVAKELGATAVVNGSTEDVVARCQQICGKDNLGLVIECSGANIALKQAIEMLRPNGEVVRVGMGFKPLDFSINDITAWNKSIIGHMAYDSTSWRNAIRLLASGAIKVKPMITHRIGLSQWREGFDAMVDKTAIKVIMTYDFDE | 3.7 ± 0.86 |  |  |  | 4.04 |  | 1.33 | 2.23 |  |  |  | 5.73
6 | MTNVLIVEDEQAIRRFLRTALEGDGMRVFEAETLQRGLLEAATRKPDLIILDLGLPDGDGIEFIRDLRQWSAVPVIVLSARSEESDKIAALDAGADDYLSKPFGIGELQARLRVALRRHSATTAPDPLVKFSDVTVDLAARVIHRGEEEVHLTPIEFRLLAVLLNNAGKVLTQRQLLNQVWGPNAVEHSHYLRIYMGHLRQKLEQDPARPRHFITETGIGYRFML | 10.1 ± 0.52 | 5.392 ± 0.013 | 5.1 ± 0.7 | 5.29 ± 0.32 | 4.99 ± 0.47 | 4.92 ± 0.36 | 3.04 ± 0.1 | 5.35 ± 0.76 | 5.05 ± 0.32 | 9.806 ± 0.011 | 5.79 ± 0.17 | 10.1 ± 2
7 | MANLSGYNFAYLDEQTKRMIRRAILKAVAIPGYQVPFGGREMPMPYGWGTGGIQLTASVIGESDVLKVIDQGADDTTNAVSIRNFFKRVTGVNTTERTDDATVIQTRHRIPETPLTEDQIIIFQVPIPEPLRFIEPRETETRTMHALEEYGVMQVKLYEDIARFGHIATTYAYPVKVNGRYVMDPSPIPKFDNPKMDMMPALQLFGAGREKRIYAVPPFTRVESLDFDDHPFTVQQWDEPCAICGSTHSYLDEVVLDDAGNRMFVCSDTDYCRQQSEAKNQ |  |  |  |  |  |  |  |  |  |  | 0.723 ± 0.41 | 1.37 ± 0.74
8 | MSKVCIIAWVYGRVQGVGFRYTTQYEAKRLGLTGYAKNLDDGSVEVVACGEEGQVEKLMQWLKSGGPRSARVERVLSEPHHPSGELTDFRIR [P0AB65] | 8.66 | 6.07 ± 0.29 | 5.82 ± 0.093 | 5.59 ± 0.28 | 5.89 ± 0.12 | 5.9 ± 0.89 | 3.38 ± 0.23 | 5.96 ± 0.08 | 5.32 ± 0.17 | 9.77 ± 1.8 |  | 
